Experimental findings from patent publication US20250276075A1, “METHODS OF TREATING AXL-EXPRESSING CANCERS WITH ANTI-AXL ANTIBODIES, ANTIBODY FRAGMENTS AND THEIR IMMUNOCONJUGATES” (BIOATLA, INC., priority 2020, published 2025) are described below.

Test [1] concerns the target Axl (UniProt P30530). Put plainly: ELISA, 1:3 dilution.
Test [2] addresses Axl (UniProt P30530). Nature of the test: ELISA, 1:9 dilution.
Test [3] addresses T1, Axl (Homo sapiens, UniProt P30530).
T1 sequence (P30530 26-451 limits assumed): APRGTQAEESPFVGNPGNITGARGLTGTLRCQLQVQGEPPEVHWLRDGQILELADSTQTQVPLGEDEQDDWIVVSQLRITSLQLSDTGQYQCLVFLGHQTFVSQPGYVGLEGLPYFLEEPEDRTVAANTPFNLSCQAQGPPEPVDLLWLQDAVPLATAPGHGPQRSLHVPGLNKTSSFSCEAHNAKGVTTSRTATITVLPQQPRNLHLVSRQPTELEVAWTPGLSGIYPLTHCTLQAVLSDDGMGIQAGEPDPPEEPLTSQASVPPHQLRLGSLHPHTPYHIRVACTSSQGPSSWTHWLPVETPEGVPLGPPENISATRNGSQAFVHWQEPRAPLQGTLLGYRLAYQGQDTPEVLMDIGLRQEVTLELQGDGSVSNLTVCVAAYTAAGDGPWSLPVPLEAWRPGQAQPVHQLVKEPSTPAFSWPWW
Put plainly: Affinity ELISA of CPE mutant antibodies for binding to Axl at pH 6.0 over pH 7.4. To be noted: heavy chain variable region mutants; for Affinity ELISA CPE mutant ratio (1:3, pH 6.0/7.4): 1:3 dilution; for Affinity ELISA CPE mutant ratio (1:9, pH 6.0/7.4): 1:9 dilution. In outline:
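Single-point mutant anti-Axl antibody library (CPE) screened by ELISA for binding at pH 6.0 versus pH 7.4, at 1:3 and 1:9 antibody dilutions, in serum with FLAG-tag detection and carbonate (Krebs-Ringer) buffer. Selection criterion: pH 6.0/pH 7.4 binding ratio ≥1.5 at either dilution.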

B1: HC-E102F (antibody, V domains shown)
VH: EVQLVQSGAEVKKPGATVKISCKVSGYSFTGHTMNWIRQPPGKGLEWIGLIKPSNGGTSYNQKFKGRVTISADKSISTAYLQWSSLKASDTAMYYCAHGHYFSYFAMDYWGQGTLVTVSS
VL: DIQMTQSPSSLSASVGDRVTITCKASQDVSSAVAWYQQKPGQAPRLLIYWASTRHTGVPSRFSGSGSGTEFTLTISSLQPDDFATYYCQEHFSTPLTFGQGTKVEIK
Regarding B1, the Affinity ELISA CPE mutant ratio (1:3, pH 6.0/7.4) with Axl [1] came out at 1.88; with Axl [3], 1.879. In addition, the Affinity ELISA CPE mutant ratio (1:9, pH 6.0/7.4) with Axl [2] came to 1.36; with Axl [3] it was 1.363.

B2: HC-F105V (antibody, V domains shown)
VH: EVQLVQSGAEVKKPGATVKISCKVSGYSFTGHTMNWIRQPPGKGLEWIGLIKPSNGGTSYNQKFKGRVTISADKSISTAYLQWSSLKASDTAMYYCAHGHYESYVAMDYWGQGTLVTVSS
VL: DIQMTQSPSSLSASVGDRVTITCKASQDVSSAVAWYQQKPGQAPRLLIYWASTRHTGVPSRFSGSGSGTEFTLTISSLQPDDFATYYCQEHFSTPLTFGQGTKVEIK
With B2, the Affinity ELISA CPE mutant ratio (1:3, pH 6.0/7.4) with Axl [1] came out at 2.43; in the test with Axl [3] it was 2.429. Moreover, the Affinity ELISA CPE mutant ratio (1:9, pH 6.0/7.4) amounted to 2.8 with Axl [2] and 2.801 with Axl [3].

B3: HC-E102D (antibody, V domains shown)
VH: EVQLVQSGAEVKKPGATVKISCKVSGYSFTGHTMNWIRQPPGKGLEWIGLIKPSNGGTSYNQKFKGRVTISADKSISTAYLQWSSLKASDTAMYYCAHGHYDSYFAMDYWGQGTLVTVSS
VL: DIQMTQSPSSLSASVGDRVTITCKASQDVSSAVAWYQQKPGQAPRLLIYWASTRHTGVPSRFSGSGSGTEFTLTISSLQPDDFATYYCQEHFSTPLTFGQGTKVEIK
Take B3: the Affinity ELISA CPE mutant ratio (1:3, pH 6.0/7.4) in the test with Axl [1] was found to be 2.67; in the test with Axl [3] it was 2.674. The Affinity ELISA CPE mutant ratio (1:9, pH 6.0/7.4) with Axl [2] turned out to be 2.85; in the test with Axl [3], 2.853.

B4: HC-T033I (antibody, V domains shown)
VH: EVQLVQSGAEVKKPGATVKISCKVSGYSFTGHIMNWIRQPPGKGLEWIGLIKPSNGGTSYNQKFKGRVTISADKSISTAYLQWSSLKASDTAMYYCAHGHYESYFAMDYWGQGTLVTVSS
VL: DIQMTQSPSSLSASVGDRVTITCKASQDVSSAVAWYQQKPGQAPRLLIYWASTRHTGVPSRFSGSGSGTEFTLTISSLQPDDFATYYCQEHFSTPLTFGQGTKVEIK
B4: the figures for the Affinity ELISA CPE mutant ratio (1:3, pH 6.0/7.4) with Axl [1] and with Axl [3] were 1.59 and 1.594, respectively. Further, the Affinity ELISA CPE mutant ratio (1:9, pH 6.0/7.4) is 1 in the test with Axl [2] and 1.005 in the test with Axl [3].

B5: HC-F105S (antibody, V domains shown)
VH: EVQLVQSGAEVKKPGATVKISCKVSGYSFTGHTMNWIRQPPGKGLEWIGLIKPSNGGTSYNQKFKGRVTISADKSISTAYLQWSSLKASDTAMYYCAHGHYESYSAMDYWGQGTLVTVSS
VL: DIQMTQSPSSLSASVGDRVTITCKASQDVSSAVAWYQQKPGQAPRLLIYWASTRHTGVPSRFSGSGSGTEFTLTISSLQPDDFATYYCQEHFSTPLTFGQGTKVEIK
On to B5, for which the Affinity ELISA CPE mutant ratio (1:3, pH 6.0/7.4) in the test with Axl [1] turned out to be 3.9; with Axl [3] it was 3.898. Besides, the results for the Affinity ELISA CPE mutant ratio (1:9, pH 6.0/7.4) with Axl [2] and in the test with Axl [3] were 4.54 and 4.545, respectively.

B6: HC-E102G (antibody, V domains shown)
VH: EVQLVQSGAEVKKPGATVKISCKVSGYSFTGHTMNWIRQPPGKGLEWIGLIKPSNGGTSYNQKFKGRVTISADKSISTAYLQWSSLKASDTAMYYCAHGHYGSYFAMDYWGQGTLVTVSS
VL: DIQMTQSPSSLSASVGDRVTITCKASQDVSSAVAWYQQKPGQAPRLLIYWASTRHTGVPSRFSGSGSGTEFTLTISSLQPDDFATYYCQEHFSTPLTFGQGTKVEIK
With B6, the Affinity ELISA CPE mutant ratio (1:3, pH 6.0/7.4) with Axl [1] is 1.8; in the test with Axl [3] it was 1.798. For the same molecule, the figures for the Affinity ELISA CPE mutant ratio (1:9, pH 6.0/7.4) in the test with Axl [2] and with Axl [3] were 2.68 and 2.677, respectively.

B7: HC-F105T (antibody, V domains shown)
VH: EVQLVQSGAEVKKPGATVKISCKVSGYSFTGHTMNWIRQPPGKGLEWIGLIKPSNGGTSYNQKFKGRVTISADKSISTAYLQWSSLKASDTAMYYCAHGHYESYTAMDYWGQGTLVTVSS
VL: DIQMTQSPSSLSASVGDRVTITCKASQDVSSAVAWYQQKPGQAPRLLIYWASTRHTGVPSRFSGSGSGTEFTLTISSLQPDDFATYYCQEHFSTPLTFGQGTKVEIK
Regarding B7, the Affinity ELISA CPE mutant ratio (1:3, pH 6.0/7.4) in the test with Axl [1] was found to be 3.46; in the test with Axl [3], 3.463. The Affinity ELISA CPE mutant ratio (1:9, pH 6.0/7.4) with Axl [2] was determined as 4.02; with Axl [3], 4.021.

B8: HC-E102I (antibody, V domains shown)
VH: EVQLVQSGAEVKKPGATVKISCKVSGYSFTGHTMNWIRQPPGKGLEWIGLIKPSNGGTSYNQKFKGRVTISADKSISTAYLQWSSLKASDTAMYYCAHGHYISYFAMDYWGQGTLVTVSS
VL: DIQMTQSPSSLSASVGDRVTITCKASQDVSSAVAWYQQKPGQAPRLLIYWASTRHTGVPSRFSGSGSGTEFTLTISSLQPDDFATYYCQEHFSTPLTFGQGTKVEIK
Take B8: the Affinity ELISA CPE mutant ratio (1:3, pH 6.0/7.4) with Axl [1] turned out to be 2.02; in the test with Axl [3], 2.016. The Affinity ELISA CPE mutant ratio (1:9, pH 6.0/7.4) was 1.7 in the test with Axl [2] and 1.696 in the test with Axl [3].

B9: HC-E102H (antibody, V domains shown)
VH: EVQLVQSGAEVKKPGATVKISCKVSGYSFTGHTMNWIRQPPGKGLEWIGLIKPSNGGTSYNQKFKGRVTISADKSISTAYLQWSSLKASDTAMYYCAHGHYHSYFAMDYWGQGTLVTVSS
VL: DIQMTQSPSSLSASVGDRVTITCKASQDVSSAVAWYQQKPGQAPRLLIYWASTRHTGVPSRFSGSGSGTEFTLTISSLQPDDFATYYCQEHFSTPLTFGQGTKVEIK
Regarding B9, the Affinity ELISA CPE mutant ratio (1:3, pH 6.0/7.4) in the test with Axl [1] came out at 2.08; with Axl [3] it was 2.076. The values for the Affinity ELISA CPE mutant ratio (1:9, pH 6.0/7.4) in the test with Axl [2] and with Axl [3] were 2.31 and 2.315, respectively.

B10: HC-E102M (antibody, V domains shown)
VH: EVQLVQSGAEVKKPGATVKISCKVSGYSFTGHTMNWIRQPPGKGLEWIGLIKPSNGGTSYNQKFKGRVTISADKSISTAYLQWSSLKASDTAMYYCAHGHYMSYFAMDYWGQGTLVTVSS
VL: DIQMTQSPSSLSASVGDRVTITCKASQDVSSAVAWYQQKPGQAPRLLIYWASTRHTGVPSRFSGSGSGTEFTLTISSLQPDDFATYYCQEHFSTPLTFGQGTKVEIK
Take B10: the Affinity ELISA CPE mutant ratio (1:3, pH 6.0/7.4) amounted to 2.08 with Axl [1] and 2.079 in the test with Axl [3]. The Affinity ELISA CPE mutant ratio (1:9, pH 6.0/7.4) stood at 2.36 with Axl [2] and 2.363 in the test with Axl [3].

B11: HC-E102A (antibody, V domains shown)
VH: EVQLVQSGAEVKKPGATVKISCKVSGYSFTGHTMNWIRQPPGKGLEWIGLIKPSNGGTSYNQKFKGRVTISADKSISTAYLQWSSLKASDTAMYYCAHGHYASYFAMDYWGQGTLVTVSS
VL: DIQMTQSPSSLSASVGDRVTITCKASQDVSSAVAWYQQKPGQAPRLLIYWASTRHTGVPSRFSGSGSGTEFTLTISSLQPDDFATYYCQEHFSTPLTFGQGTKVEIK
On to B11, for which the Affinity ELISA CPE mutant ratio (1:3, pH 6.0/7.4) with Axl [1] came out at 1.54; with Axl [3], 1.538. Moreover, the Affinity ELISA CPE mutant ratio (1:9, pH 6.0/7.4) worked out at 1.69 with Axl [2] and 1.687 with Axl [3].

B12: HC-F105N (antibody, V domains shown)
VH: EVQLVQSGAEVKKPGATVKISCKVSGYSFTGHTMNWIRQPPGKGLEWIGLIKPSNGGTSYNQKFKGRVTISADKSISTAYLQWSSLKASDTAMYYCAHGHYESYNAMDYWGQGTLVTVSS
VL: DIQMTQSPSSLSASVGDRVTITCKASQDVSSAVAWYQQKPGQAPRLLIYWASTRHTGVPSRFSGSGSGTEFTLTISSLQPDDFATYYCQEHFSTPLTFGQGTKVEIK
Regarding B12, the Affinity ELISA CPE mutant ratio (1:3, pH 6.0/7.4) with Axl [1] was 2.36; with Axl [3], 2.364. Moreover, the Affinity ELISA CPE mutant ratio (1:9, pH 6.0/7.4) in the test with Axl [2] is 2.64; with Axl [3], 2.642.

B13: HC-Y104P (antibody, V domains shown)
VH: EVQLVQSGAEVKKPGATVKISCKVSGYSFTGHTMNWIRQPPGKGLEWIGLIKPSNGGTSYNQKFKGRVTISADKSISTAYLQWSSLKASDTAMYYCAHGHYESPFAMDYWGQGTLVTVSS
VL: DIQMTQSPSSLSASVGDRVTITCKASQDVSSAVAWYQQKPGQAPRLLIYWASTRHTGVPSRFSGSGSGTEFTLTISSLQPDDFATYYCQEHFSTPLTFGQGTKVEIK
In the case of B13, the values for the Affinity ELISA CPE mutant ratio (1:3, pH 6.0/7.4) in the test with Axl [1] and in the test with Axl [3] were 2.54 and 2.535, respectively. Further, the Affinity ELISA CPE mutant ratio (1:9, pH 6.0/7.4) was 2.42 with Axl [2] and 2.416 with Axl [3].
